According to the supplement of paper PMC9233669:
This sample holds only a part of the variants without activity.

What was measured:
biotinyl-Phe-oxazolone = assay: self-aminoacylation, catalytic enhancement (BFO) (fold over background); higher = more active; k-Seq, kA / k0A0; sequences stand for … in GGGAAUGGAUCCACAUCUACGAAUUC…UUCACUGCAGACUUGACGAAGCUG
Method in brief: (§1)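 Each biotinyl-aminoacyl-oxazolone, at 2–1250 μM, was incubated with mutagenized RNA pools (0.43 μM) carrying a 21-nt variable region. The 50 μL reactions contained HEPES/NaCl/KCl/MgCl2/CaCl2 buffer with 5% acetonitrile at pH 6.9–7.0 and ran for 90 minutes at room temperature. After streptavidin capture, RNA was measured by qPCR in triplicate and by Illumina sequencing, and catalytic enhancement was calculated as median kA over the uncatalyzed rate from a pseudo-first-order fit of per-sequence fraction reacted.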

biotinyl-Trp-oxazolone = assay: self-aminoacylation, catalytic enhancement (BWO) (fold over background); higher = more active; k-Seq, kA / k0A0; sequences stand for … in GGGAAUGGAUCCACAUCUACGAAUUC…UUCACUGCAGACUUGACGAAGCUG
Method in brief: as §1

biotinyl-Met-oxazolone = assay: self-aminoacylation, catalytic enhancement (BMO) (fold over background); higher = more active; k-Seq, kA / k0A0; sequences stand for … in GGGAAUGGAUCCACAUCUACGAAUUC…UUCACUGCAGACUUGACGAAGCUG
Method in brief: as §1

biotinyl-Ile-oxazolone = assay: self-aminoacylation, catalytic enhancement (BIO) (fold over background); higher = more active; k-Seq, kA / k0A0; sequences stand for … in GGGAAUGGAUCCACAUCUACGAAUUC…UUCACUGCAGACUUGACGAAGCUG
Method in brief: as §1

biotinyl-Leu-oxazolone = assay: self-aminoacylation, catalytic enhancement (BLO) (fold over background); higher = more active; k-Seq, kA / k0A0; sequences stand for … in GGGAAUGGAUCCACAUCUACGAAUUC…UUCACUGCAGACUUGACGAAGCUG
Method in brief: as §1

biotinyl-Val-oxazolone = assay: self-aminoacylation, catalytic enhancement (BVO) (fold over background); higher = more active; k-Seq, kA / k0A0; sequences stand for … in GGGAAUGGAUCCACAUCUACGAAUUC…UUCACUGCAGACUUGACGAAGCUG
Method in brief: as §1

Sequence | self-aminoacylation (biotinyl-Phe-oxazolone) | self-aminoacylation (biotinyl-Trp-oxazolone) | self-aminoacylation (biotinyl-Met-oxazolone) | self-aminoacylation (biotinyl-Ile-oxazolone) | self-aminoacylation (biotinyl-Leu-oxazolone) | self-aminoacylation (biotinyl-Val-oxazolone)
AAGUUUGCAAAUAGUCGCAAU [Fam3.1 aminoacylation ribozyme variant] | 2.03 | 1.78 | 1.64 | 1.35 | 1.27 | 1.26
AAGUUUGCCAAUAGGCGCAAG [Fam3.1 aminoacylation ribozyme variant] | 1.05 | 0.799 | 0.885 | 1.04 | 1.15 | 1.02
AAGUUUGCCAAUAGUCGCAUG [Fam3.1 aminoacylation ribozyme variant] | 1.7 | 1.56 | 1.79 | 1.5 | 1.45 | 1.59
AAGUUUGCCAAUAGUCGCGAG [Fam3.1 aminoacylation ribozyme variant] | 11.6 | 3.77 | 1.96 | 1.61 | 2.25 | 2.09
AAGUUUGCCAAUAGUUGCAAG [Fam3.1 aminoacylation ribozyme variant] | 1.39 | 0.808 | 0.895 | 0.948 | 0.958 | 0.866
AAGUUUGCCAAUAUUCGCAAG [Fam3.1 aminoacylation ribozyme variant] | 3.77 | 1.45 | 1.35 | 1.51 | 1.07 | 1.07
AAGUUUGCCACUAGUCGCAAG [Fam3.1 aminoacylation ribozyme variant] | 0.709 | 0.807 | 0.991 | 0.918 | 0.973 | 1.15
AAGUUUGCCUAUAGUCGCAAG [Fam3.1 aminoacylation ribozyme variant] | 0.956 | 0.784 | 0.706 | 0.844 | 0.718 | 0.981
AAGUUUGCGAAUAGUCGAAAG [Fam3.1 aminoacylation ribozyme variant] | 0.796 | 0.83 | 1.17 | 1.05 | 1.11 | 0.733
AAGUUUGCGAAUAGUCGCAUG [Fam3.1 aminoacylation ribozyme variant] | 1.13 | 1 | 1.04 | 1.1 | 1.23 | 1.08
AAGUUUGCUAAAAGUCGUAAG [Fam3.1 aminoacylation ribozyme variant] | 25.8 | 6.5 | 1.28 | 1.12 | 0.982 | 0.971
AAGUUUGCUAAAGGUCGCAAG [Fam3.1 aminoacylation ribozyme variant] | 1.14 | 0.835 | 0.931 | 0.687 | 0.716 | 0.625
AAGUUUGCUAACCGUCGCAAG [Fam3.1 aminoacylation ribozyme variant] | 0.981 | 0.488 | 0.567 | 0.714 | 0.755 | 0.754
AAGUUUGCUAAGAGUCGAAAG [Fam3.1 aminoacylation ribozyme variant] | 1.3 | 0.757 | 0.817 | 0.804 | 0.602 | 0.785
AAGUUUGCUAAGAGUCGCAAU [Fam3.1 aminoacylation ribozyme variant] | 1.24 | 1.74 | 0.797 | 1.42 | 1.05 | 1.01
AAGUUUGCUAAGAGUCGCAUG [Fam3.1 aminoacylation ribozyme variant] | 1.82 | 1.69 | 1.07 | 0.902 | 1.03 | 1.1
AAGUUUGCUAAGAGUGGCAAG [Fam3.1 aminoacylation ribozyme variant] | 0.543 | 0.872 | 0.955 | 0.861 | 0.724 | 1.11
AAGUUUGCUAAGUGUCGCAAG [Fam3.1 aminoacylation ribozyme variant] | 1.9 | 0.987 | 0.887 | 0.902 | 0.786 | 0.897
AAGUUUGCUAAUAAACGCAAG [Fam3.1 aminoacylation ribozyme variant] | 1.12 | 0.97 | 0.833 | 0.774 | 0.687 | 0.667
AAGUUUGCUAAUAAUCGCAAC [Fam3.1 aminoacylation ribozyme variant] | 0.842 | 1.18 | 1.06 | 0.8 | 0.773 | 0.975
AAGUUUGCUAAUAAUGGCAAG [Fam3.1 aminoacylation ribozyme variant] | 0.786 | 0.585 | 0.599 | 0.644 | 0.479 | 0.727
AAGUUUGCUAAUACCCGCAAG [Fam3.1 aminoacylation ribozyme variant] | 0.631 | 1.45 | 0.577 | 0.909 | 0.783 | 0.838
AAGUUUGCUAAUAGACGCAUG [Fam3.1 aminoacylation ribozyme variant] | 0.785 | 0.703 | 0.48 | 0.645 | 0.553 | 0.59
AAGUUUGCUAAUAGCCGCAAA [Fam3.1 aminoacylation ribozyme variant] | 1.38 | 1.3 | 1.86 | 1.92 | 1.38 | 1.58
AAGUUUGCUAAUAGCCGCCAG [Fam3.1 aminoacylation ribozyme variant] | 0.63 | 1.21 | 1.1 | 1.52 | 1.03 | 1.45
